# From the supplement of paper PMC7877785
# ± gives the uncertainty stated by the source.
# Test: self-splicing fitness, log relative to wild type (ln ratio); higher = more splicing; Tetrahymena group I intron in knt gene, E. coli kanamycin selection, DiMSum; sequences stand for … in CUCUCU…GGAGGGAAAAGUUAUCAGGCAUGCACCUGGUAGCUAGUCUUUAAACCAAUAGAUUGCAUCGGUUUAAAAGGCAAGACCGUCAAAUUGCGGGAAAGGGGUCAACAGCCGUUCAGUACCAAGUCUCAGGGGAAACUUUGAGAUGGCCUUGCAAAGGGUAUGGUAAUAAGCUGACGGACAUGGUCCUAACCACGCAGCCAAGUCCUAAGUCAACAGAUCUUCUGUUGAUAUGGAUGCAGUUCACAGACUAAAUGUCGGUCGGGGAAGAUGUAUUCUUCUCAUAAGAUAUAGUCGGACCUCUCCUUAAUGGGAGCUAGCGGAUGAAGUGAUGCAACACUGGAGCCGCUGGGAACUAAUUUGUAUGCGAAAGUAUAUUGAUUAGUUUUGGAGUACUCGUGGUCG
# In short: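 Library with all eight P1ex-region intron nucleotides randomised, intron inside the knt kanamycin-resistance gene on pET-22b(+), in E. coli BL21(DE3). Cells grew overnight at 37°C or 30°C on LB agar with or without 25 μg/mL kanamycin (plus 100 μg/mL carbenicillin, 50 μM IPTG, 0.2% rhamnose), in six replicate transformations. Pooled colonies were amplicon-sequenced on Illumina HiSeq 2500. DiMSum fitness is the error-weighted combination of wild-type-normalised replicate fold changes, kanamycin versus none.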
Sequence,self-splicing fitness (ln) (30 °C),self-splicing fitness (ln) (37 °C)
CGUCAGCAAUAUUACGUAAC,-3.29 ± 0.35,-2.29 ± 0.26
CGUCAGCAAUAUUACGUUCU,-1.39 ± 0.098,-0.462 ± 0.11
CGUGAGCAAUAUUACGAAUA,-2.8 ± 0.28,-2.87 ± 0.32
CGUGAGCAAUAUUACGACAG,-0.792 ± 0.092,-0.318 ± 0.1
CGUGAGCAAUAUUACGACAU,-3.809 ± 0.03,-2.19 ± 0.039
CGUGAGCAAUAUUACGAGCG,-3.57 ± 0.3,-2.52 ± 0.29
CGUGAGCAAUAUUACGAGCU,-2.79 ± 0.17,-2.99 ± 0.25
CGUGAGCAAUAUUACGAUGG,-0.492 ± 0.1,-0.139 ± 0.13
CGUGAGCAAUAUUACGAUUA,,-2.93 ± 0.25
CGUGAGCAAUAUUACGCAAA,,-1.84 ± 0.46
CGUGAGCAAUAUUACGCGGC,-2.91 ± 0.24,-3.19 ± 0.28
CGUGAGCAAUAUUACGCGGG,-1.74 ± 0.25,
CGUGAGCAAUAUUACGCUGU,-3.2 ± 0.26,-2.43 ± 0.26
CGUGAGCAAUAUUACGCUUG,-2.56 ± 0.11,-2.07 ± 0.13
CGUGAGCAAUAUUACGGAGC,-2.97 ± 0.36,
CGUGAGCAAUAUUACGGAUG,-1.55 ± 0.075,-0.983 ± 0.094
CGUGAGCAAUAUUACGGCAA,-2.81 ± 0.2,-1.43 ± 0.19
CGUGAGCAAUAUUACGGCCU,-2.22 ± 0.23,-3.57 ± 0.46
CGUGAGCAAUAUUACGGUAC,-3.78 ± 0.35,-1.63 ± 0.31
CGUGAGCAAUAUUACGUAUG,-1.37 ± 0.11,-0.0658 ± 0.12
CGUGAGCAAUAUUACGUCAA,-2.01 ± 0.24,-1.35 ± 0.2
CGUGAGCAAUAUUACGUCGU,,-2.72 ± 0.28
CGUGAGCAAUAUUACGUCUC,-3.22 ± 0.21,-2.29 ± 0.19
CGUGAGCAAUAUUACGUGAA,,-1.17 ± 0.22
CGUGAGCAAUAUUACGUUAC,-3.96 ± 0.43,
CGUUAGCAAUAUUACGAACA,-0.595 ± 0.16,0.0081 ± 0.16

Sequence,self-splicing fitness (ln) (30 °C),self-splicing fitness (ln) (37 °C)
CGUUAGCAAUAUUACGAGCG,-3.69 ± 0.21,-2.63 ± 0.21
CGUUAGCAAUAUUACGAGGU,-4.3 ± 0.29,-2.49 ± 0.23
CGUUAGCAAUAUUACGAUCU,-1.14 ± 0.091,-0.132 ± 0.12
CGUUAGCAAUAUUACGCCAA,-1.97 ± 0.45,
CGUUAGCAAUAUUACGCGUG,-1.3 ± 0.099,-1.36 ± 0.089
CGUUAGCAAUAUUACGGAUG,-1.85 ± 0.11,-1.37 ± 0.14
CGUUAGCAAUAUUACGGCAA,-2.91 ± 0.2,-1.1 ± 0.15
CGUUAGCAAUAUUACGGCGU,-3.75 ± 0.31,-0.556 ± 0.19
CGUUAGCAAUAUUACGGCUG,-0.2 ± 0.093,-0.439 ± 0.12
CGUUAGCAAUAUUACGGGGA,,-2.28 ± 0.3
CGUUAGCAAUAUUACGGGUC,-3.39 ± 0.41,-2.01 ± 0.24
CGUUAGCAAUAUUACGGUCA,-0.526 ± 0.14,-0.197 ± 0.14
CGUUAGCAAUAUUACGGUCC,,-1.08 ± 0.48
CGUUAGCAAUAUUACGGUUU,-3.84 ± 0.34,-2.44 ± 0.21
CGUUAGCAAUAUUACGUAAG,-0.652 ± 0.1,-0.0337 ± 0.14
CGUUAGCAAUAUUACGUAUA,-2.85 ± 0.28,-2.49 ± 0.31
CGUUAGCAAUAUUACGUAUG,-2.12 ± 0.097,-0.357 ± 0.097
CGUUAGCAAUAUUACGUCUG,-0.914 ± 0.11,0.164 ± 0.13
CGUUAGCAAUAUUACGUGCU,-2.71 ± 0.2,-1.64 ± 0.21
CGUUAGCAAUAUUACGUUAG,-0.796 ± 0.081,-0.539 ± 0.1
CUAAAGCAAUAUUACGAAAC,-3.29 ± 0.45,-2.67 ± 0.41
CUAAAGCAAUAUUACGAACU,-5.08 ± 0.38,-2.04 ± 0.19
CUAAAGCAAUAUUACGAAUA,-2.73 ± 0.23,-1.94 ± 0.24
CUAAAGCAAUAUUACGAAUU,-3.57 ± 0.29,-3.9 ± 0.36
CUAAAGCAAUAUUACGACCG,0.565 ± 0.087,0.104 ± 0.11
